Columns and labels:
[1] = biological target: HIS-tagged neonatal Fc receptor (FcRn, No. CT009-H08H from Sino Biological Inc) (UniProt P55899); assay: BLI (Octet RED 96), His-FcRn on Ni-NTA biosensor, aflibercept as analyte, pH 6.0; sample (d) Eylea, stored 3 months at 5 C
[2] = biological target: HIS-tagged neonatal Fc receptor (FcRn, No. CT009-H08H from Sino Biological Inc) (UniProt P55899); assay: BLI (Octet RED 96), His-FcRn on Ni-NTA biosensor, aflibercept as analyte, pH 6.0; formulation (b), starting material T0
[3] = biological target: HIS-tagged neonatal Fc receptor (FcRn, No. CT009-H08H from Sino Biological Inc) (UniProt P55899); assay: BLI (Octet RED 96), His-FcRn on Ni-NTA biosensor, aflibercept as analyte, pH 6.0; formulation (c), starting material T0
[4] = biological target: HIS-tagged neonatal Fc receptor (FcRn, No. CT009-H08H from Sino Biological Inc) (UniProt P55899); assay: BLI (Octet RED 96), His-FcRn on Ni-NTA biosensor, aflibercept as analyte, pH 6.0; formulation (b), stored 3 months at 5 C
[5] = biological target: HIS-tagged neonatal Fc receptor (FcRn, No. CT009-H08H from Sino Biological Inc) (UniProt P55899); assay: BLI (Octet RED 96), His-FcRn on Ni-NTA biosensor, aflibercept as analyte, pH 6.0; sample (d) Eylea, stored 3 months at 40 C/75% relative humidity
[6] = biological target: HIS-tagged neonatal Fc receptor (FcRn, No. CT009-H08H from Sino Biological Inc) (UniProt P55899); assay: BLI (Octet RED 96), His-FcRn on Ni-NTA biosensor, aflibercept as analyte, pH 6.0; formulation (a), starting material T0
[7] = biological target: HIS-tagged neonatal Fc receptor (FcRn, No. CT009-H08H from Sino Biological Inc) (UniProt P55899); assay: BLI (Octet RED 96), His-FcRn on Ni-NTA biosensor, aflibercept as analyte, pH 6.0; formulation (a), stored 3 months at 5 C
[8] = biological target: HIS-tagged neonatal Fc receptor (FcRn, No. CT009-H08H from Sino Biological Inc) (UniProt P55899); assay: BLI (Octet RED 96), His-FcRn on Ni-NTA biosensor, aflibercept as analyte, pH 6.0; formulation (c), stored 3 months at 40 C/75% relative humidity
[9] = biological target: HIS-tagged neonatal Fc receptor (FcRn, No. CT009-H08H from Sino Biological Inc) (UniProt P55899); assay: BLI (Octet RED 96), His-FcRn on Ni-NTA biosensor, aflibercept as analyte, pH 6.0; sample (d) Eylea, starting material T0
[10] = biological target: HIS-tagged neonatal Fc receptor (FcRn, No. CT009-H08H from Sino Biological Inc) (UniProt P55899); assay: BLI (Octet RED 96), His-FcRn on Ni-NTA biosensor, aflibercept as analyte, pH 6.0; formulation (c), stored 3 months at 5 C
[11] = biological target: HIS-tagged neonatal Fc receptor (FcRn, No. CT009-H08H from Sino Biological Inc) (UniProt P55899); assay: BLI (Octet RED 96), His-FcRn on Ni-NTA biosensor, aflibercept as analyte, pH 6.0; formulation (b), stored 3 months at 40 C/75% relative humidity
[12] = biological target: HIS-tagged neonatal Fc receptor (FcRn, No. CT009-H08H from Sino Biological Inc) (UniProt P55899); assay: BLI (Octet RED 96), His-FcRn on Ni-NTA biosensor, aflibercept as analyte, pH 6.0; formulation (a), stored 3 months at 40 C/75% relative humidity

HIS-tagged neonatal Fc receptor (FcRn, No. CT009-H08H from Sino Biological Inc), sequence (P55899 24-297 limits assumed, chain 1 of 2): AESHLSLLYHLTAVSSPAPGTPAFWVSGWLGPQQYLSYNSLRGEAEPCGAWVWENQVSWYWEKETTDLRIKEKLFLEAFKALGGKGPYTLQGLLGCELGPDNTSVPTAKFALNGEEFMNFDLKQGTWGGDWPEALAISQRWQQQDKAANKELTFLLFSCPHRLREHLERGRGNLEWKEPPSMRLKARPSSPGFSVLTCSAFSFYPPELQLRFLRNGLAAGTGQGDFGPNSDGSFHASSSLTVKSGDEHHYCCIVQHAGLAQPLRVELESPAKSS
HIS-tagged neonatal Fc receptor (FcRn, No. CT009-H08H from Sino Biological Inc), sequence (chain, as listed by the source H08H H08H limits assumed, chain 2 of 2): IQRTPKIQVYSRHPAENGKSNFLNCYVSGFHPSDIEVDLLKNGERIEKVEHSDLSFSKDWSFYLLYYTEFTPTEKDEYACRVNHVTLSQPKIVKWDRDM

Which Kd [1] does the source give for “aflibercept (from UniProt P17948 129-230; P35968 225-327) (Fc fusion)” here?
The Kd was 0.0968 nM.

What about the koff [1] of the same substance?
The koff was 6.11e-05 s⁻¹.

And the kon [1]?
Its kon is 631000 M⁻¹ s⁻¹.

What about the koff [2] of the same substance?
The koff was 6.47e-05 s⁻¹.

What about the kon [2] of the same substance?
Its kon is 613000 M⁻¹ s⁻¹.

And the Kd [3]?
The Kd was 0.107 nM.

What about the koff [3] of the same substance?
Its koff is 6.44e-05 s⁻¹.

What about the kon [3] of the same substance?
The kon was 605000 M⁻¹ s⁻¹.

What about the Kd [4] of the same substance?
The Kd was 0.0923 nM.

And the koff [4]?
The koff was 5.71e-05 s⁻¹.

And the kon [4]?
The kon was 619000 M⁻¹ s⁻¹.

What about the Kd [5] of the same substance?
The Kd was 0.0609 nM.

What about the koff [5] of the same substance?
Its koff is 3e-05 s⁻¹.

And the kon [5]?
The kon was 493000 M⁻¹ s⁻¹.

What about the Kd [6] of the same substance?
Its Kd is 0.118 nM.

And the koff [6]?
Its koff is 6.56e-05 s⁻¹.

And the kon [6]?
The kon was 556000 M⁻¹ s⁻¹.

What about the Kd [7] of the same substance?
The Kd was 0.098 nM.

And the koff [7]?
The koff was 5.84e-05 s⁻¹.

What about the kon [7] of the same substance?
The kon was 596000 M⁻¹ s⁻¹.

What about the Kd [8] of the same substance?
Its Kd is 0.0591 nM.

And the koff [8]?
Its koff is 2.71e-05 s⁻¹.

What about the kon [8] of the same substance?
The kon was 459000 M⁻¹ s⁻¹.

And the Kd [9]?
The Kd was 0.0993 nM.

And the koff [9]?
The koff was 5.56e-05 s⁻¹.

What about the kon [9] of the same substance?
Its kon is 560000 M⁻¹ s⁻¹.

What about the Kd [10] of the same substance?
The Kd was 0.103 nM.

And the koff [10]?
Its koff is 6.28e-05 s⁻¹.

What about the kon [10] of the same substance?
The kon was 610000 M⁻¹ s⁻¹.

What about the Kd [11] of the same substance?
Its Kd is 0.0591 nM.

And the koff [11]?
Its koff is 2.86e-05 s⁻¹.

What about the kon [11] of the same substance?
Its kon is 483000 M⁻¹ s⁻¹.

And the Kd [12]?
The Kd was 0.0905 nM.

And the koff [12]?
Its koff is 4.11e-05 s⁻¹.

What about the kon [12] of the same substance?
Its kon is 454000 M⁻¹ s⁻¹.

— patent US20190030123A1
